The sequences below were run on Escherichia coli TOP10 (assay: shrunken log2 fold change of peptide-encoding DNA abundance (4.5 h post-induction vs induction); higher = less antimicrobial activity (less host growth inhibition)). Conditions: time post-induction: 4.5 h; library: site-saturation at positions 5, 18, 19, 20.
RRIRWRPPRLPRPRPRPYLDPRP was tested, and the “shrunken log2 fold change” value was -0.33.
With RRIRKRPPRLPRPRPRPGRNPRP the “shrunken log2 fold change” value was -0.105.
In the case of RRIRIRPPRLPRPRPRPCVIPRP, the “shrunken log2 fold change” value is reported as -0.0683.
In the case of RRIRARPPRLPRPRPRPRRKPRP, the “shrunken log2 fold change” value is reported as 0.644.
In the case of RRIRSRPPRLPRPRPRPQLDPRP, the “shrunken log2 fold change” value is reported as -0.191.
With RRIRPRPPRLPRPRPRPYIWPRP the “shrunken log2 fold change” value was -0.267.
In the case of RRIRIRPPRLPRPRPRPRSHPRP, the “shrunken log2 fold change” value is reported as -0.287.
With RRIRYRPPRLPRPRPRPHQVPRP the “shrunken log2 fold change” value was -0.208.
For RRIRDRPPRLPRPRPRPWALPRP, the “shrunken log2 fold change” value was -0.000578.
RRIRIRPPRLPRPRPRPGLLPRP was tested, and the “shrunken log2 fold change” value was -0.0591.
With RRIRVRPPRLPRPRPRPVTKPRP the “shrunken log2 fold change” value was 0.261.
In the case of RRIRTRPPRLPRPRPRPAKGPRP, the “shrunken log2 fold change” value is reported as 0.0671.
RRIRKRPPRLPRPRPRPWIRPRP was tested, and the “shrunken log2 fold change” value was -0.336.
RRIRCRPPRLPRPRPRPQVGPRP was tested, and the “shrunken log2 fold change” value was -0.0906.
In the case of RRIRGRPPRLPRPRPRPFQCPRP, the “shrunken log2 fold change” value is reported as -0.0282.
With RRIRLRPPRLPRPRPRPPADPRP the “shrunken log2 fold change” value was 0.797.
With RRIRGRPPRLPRPRPRPDCFPRP the “shrunken log2 fold change” value was 1.13.
With RRIRSRPPRLPRPRPRPNFWPRP the “shrunken log2 fold change” value was 0.0869.
RRIRGRPPRLPRPRPRPNMHPRP was tested, and the “shrunken log2 fold change” value was 0.563.
In the case of RRIRRRPPRLPRPRPRPIVYPRP, the “shrunken log2 fold change” value is reported as -0.00893.
In the case of RRIRLRPPRLPRPRPRPTLTPRP, the “shrunken log2 fold change” value is reported as 0.26.
In the case of RRIRTRPPRLPRPRPRPRIIPRP, the “shrunken log2 fold change” value is reported as -0.215.
For RRIRLRPPRLPRPRPRPYRSPRP, the “shrunken log2 fold change” value was -0.0017.
For RRIRWRPPRLPRPRPRPGDIPRP, the “shrunken log2 fold change” value was -0.133.
RRIRCRPPRLPRPRPRPYYVPRP was tested, and the “shrunken log2 fold change” value was -0.519.
For RRIRNRPPRLPRPRPRPCNSPRP, the “shrunken log2 fold change” value was -0.0484.
RRIRVRPPRLPRPRPRPWWVPRP was tested, and the “shrunken log2 fold change” value was 0.00127.
RRIRPRPPRLPRPRPRPFVPPRP was tested, and the “shrunken log2 fold change” value was 0.0581.
With RRIRMRPPRLPRPRPRPRKCPRP the “shrunken log2 fold change” value was 0.0129.
For RRIRVRPPRLPRPRPRPAPIPRP, the “shrunken log2 fold change” value was 0.152.
For RRIRIRPPRLPRPRPRPLGDPRP, the “shrunken log2 fold change” value was -0.0585.
With RRIRLRPPRLPRPRPRPKCTPRP the “shrunken log2 fold change” value was 0.0446.
For RRIRDRPPRLPRPRPRPSCPPRP, the “shrunken log2 fold change” value was 0.00741.
For RRIRQRPPRLPRPRPRPQEFPRP, the “shrunken log2 fold change” value was -0.0104.
In the case of RRIRGRPPRLPRPRPRPSITPRP, the “shrunken log2 fold change” value is reported as 0.0975.
For RRIRGRPPRLPRPRPRPFLFPRP, the “shrunken log2 fold change” value was 0.39.
RRIRRRPPRLPRPRPRPSSSPRP was tested, and the “shrunken log2 fold change” value was 0.133.
With RRIRKRPPRLPRPRPRPLEHPRP the “shrunken log2 fold change” value was 0.156.
RRIRSRPPRLPRPRPRPEGWPRP was tested, and the “shrunken log2 fold change” value was 1.18.
In the case of RRIRGRPPRLPRPRPRPSFKPRP, the “shrunken log2 fold change” value is reported as -0.0759.
RRIRFRPPRLPRPRPRPRFAPRP was tested, and the “shrunken log2 fold change” value was 0.366.
RRIRLRPPRLPRPRPRPSVQPRP was tested, and the “shrunken log2 fold change” value was -0.57.
In the case of RRIRFRPPRLPRPRPRPSTLPRP, the “shrunken log2 fold change” value is reported as -0.757.
In the case of RRIRCRPPRLPRPRPRPMHNPRP, the “shrunken log2 fold change” value is reported as -0.293.
With RRIRHRPPRLPRPRPRPSNYPRP the “shrunken log2 fold change” value was -0.28.
RRIRPRPPRLPRPRPRPVCLPRP was tested, and the “shrunken log2 fold change” value was 0.081.
For RRIRMRPPRLPRPRPRPHWCPRP, the “shrunken log2 fold change” value was -0.153.
For RRIRTRPPRLPRPRPRPTIWPRP, the “shrunken log2 fold change” value was 0.03.
With RRIRGRPPRLPRPRPRPDLTPRP the “shrunken log2 fold change” value was 0.219.
RRIRDRPPRLPRPRPRPIKWPRP was tested, and the “shrunken log2 fold change” value was -0.147.
With RRIRFRPPRLPRPRPRPWVHPRP the “shrunken log2 fold change” value was 0.0589.
With RRIRQRPPRLPRPRPRPQTPPRP the “shrunken log2 fold change” value was 0.0705.
RRIRCRPPRLPRPRPRPNPEPRP was tested, and the “shrunken log2 fold change” value was 0.448.
RRIRERPPRLPRPRPRPPTLPRP was tested, and the “shrunken log2 fold change” value was 0.162.
In the case of RRIRMRPPRLPRPRPRPSEVPRP, the “shrunken log2 fold change” value is reported as 0.159.
For RRIRERPPRLPRPRPRPRPAPRP, the “shrunken log2 fold change” value was 0.434.
RRIRVRPPRLPRPRPRPSHVPRP was tested, and the “shrunken log2 fold change” value was -0.0313.
In the case of RRIRSRPPRLPRPRPRPDDFPRP, the “shrunken log2 fold change” value is reported as -0.151.
In the case of RRIRYRPPRLPRPRPRPYHPPRP, the “shrunken log2 fold change” value is reported as -0.152.
With RRIRPRPPRLPRPRPRPWNEPRP the “shrunken log2 fold change” value was -0.138.

— the supplement of paper PMC9112550, “Optimization of the antimicrobial peptide Bac7 by deep mutational scanning” (BMC Biology, 2022)
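Further: peptides expressed intracellularly from a pBAD plasmid library in pooled LB shake-flask culture, induced with 0.3% L-arabinose, DNA abundance read by NGS, three biological replicates, DESeq2 with apeglm shrinkage.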
